Laboratory results as given in US20170240633A1 (published 2017).
Read-outs that look alike come from different tables or passages of the source.

B1: anti-TIM-3 antibody clone A3 (antibody, V domains shown)
VH: QVQLVQSGAEVKKPGASVKVSCKASGYTFTSYYMHWVRQAPGQGLEWMGIINPSGGSTSYAQKFQGRVTMTRDTSTSTVYMELSSLRSEDTAVYYCARSPGVVTALFDYWGQGTLVTVSS
VL: DIQMTQSPSFMSASVGDRVTITCRASQDIGSYLAWYQQKPGKAPKLLIYAASTLQSGVPSRFSGSGSGTDFTLTINSLQPEDFATYYCQQSYSSPPTFGPGTTLEIK
B2: anti-TIM-3 antibody clone G6 (antibody, V domains shown)
VH: QVQLQESGPGLVKPSGTLSLTCAVSGGSISSSNWWSWVRQPPGKGLEWIGEIYHSGSTNYNPSLKSRVTISVDKSKNQFSLKLSSVTAADTAVYYCARVVAVAGTVDYWGQGTLVTVSS
VL: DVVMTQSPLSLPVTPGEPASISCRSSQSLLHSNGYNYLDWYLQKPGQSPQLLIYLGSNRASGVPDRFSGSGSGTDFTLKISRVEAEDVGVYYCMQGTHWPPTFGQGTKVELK
B3: anti-TIM-3 antibody clone B10 (antibody, V domains shown)
VH: QVQLQESGPGLVKASETLSLTCTVSGGSIGSSDYYWGWIRQPPGKGLEWIGSIYYSGSTYYNPSLKSRVTMSVDTPNNQFSLKLSSVTAADTAVYYCARGEHRGEFDYWGQGTLVTVSS
VL: EIVLTQSPATLSFSPGERATLSCRASQSVGSYLAWYQQRPGQAPRPLIYDATNRATGIPTRFSGSGSGTDFTLTISSLEPEDFATYYCQHRRTFGRGTKLEIK
B4: anti-TIM-3 antibody clone G7 (antibody, V domains shown)
VH: EVQLVQSGAEVKKPGASVKVSCKASGYTFTSYYMHWVRQAPGQGLEWMGIINPSGGSTSYAQKFQGRVTMTRDTSTSTVYMELSSLRSEDTAVYYCARDQYSSGWYYYGMDVWGQGTTVTVSS
VL: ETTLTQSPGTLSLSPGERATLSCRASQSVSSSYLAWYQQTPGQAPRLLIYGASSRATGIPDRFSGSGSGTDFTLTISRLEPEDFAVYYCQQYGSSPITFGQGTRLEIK
B5: anti-TIM-3 antibody clone G9 (antibody, V domains shown)
VH: QVQLQQSGAEVKKPGASVKVSCKASGYTFTSYYMHWVRQAPGQGLEWMGIINPSGGSTSYAQKFQGRVTMTRDTSTSTVYMELSSLRSEDTAVYYCARDLYSYGFYYYGMDVWGQGTTVTVSS
VL: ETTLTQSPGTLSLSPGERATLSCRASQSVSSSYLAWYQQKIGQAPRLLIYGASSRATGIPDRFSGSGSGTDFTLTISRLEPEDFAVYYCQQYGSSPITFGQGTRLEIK
B6: anti-TIM-3 antibody clone A11 (antibody, V domains shown)
VH: QVQLQQWGAGLLKPSETLSLTCAVYGGSFSGYYWSWIRQPPGKGLEWIGEINHSGSTNYNPSLKSRVTISVDTSKNQFSLKLSSVTAADTAVYYCARGYVAGFDYWGQGTLVTVSS
VL: QSVVTQPPSVSAAPGQKVTISCSGSSSNIGNNYVSWYQQLPGTAPKLLIYGNNWRPSGIPDRFSGSKSGTSATLAISGLQTGDEADYYCETWDSSLSAGVFGGGTKLTVL

Key:
[1] = target: T1, human TIM-3 coupled to human Fc (human, UniProt Q8TDQ0 22-200); assay: SPR
[2] = target: T1, human TIM-3 coupled to human Fc; assay: SPR; remark: listed apart in the source

Binder | Kd [1] [pM] | Kd [2] [pM]
B1 | 440 | 
B2 | 2520 | 
B3 | 260 | 
B4 | 620 | 
B5 | 630 | 
B6 |  | 1260
